This note sets out measurements from article PMC10063446 (Nature Immunology, 2023).

To fix the notation:
B1: P2-1G1 (antibody, V domains shown)
VH: EVQLVESGGGLVQPGRSLRLSCAASGFTFDDYAMHWVRQAPGKGLEWVSGMSWNSGTIGYADSVKGRFTISRDNAKNSLYLQMNSLRPEDTALYYCAKDIGGAEMATRNYGMDVWGQGTTVTVSS
VL: QSALTQPASVSGSPGQSITISCTGASSDVGGYNYVSWYQQHPGKAPKLMIYDVSERPSGVSNRFSGSKSGNTASLTISGLQAEDEADYYCSSYTSSSTLVFGGGTKLTVL
B2: P5-1A7 (antibody, V domains shown)
VH: EVQLVESGGDLIQPGGSLRLSCAASGFTVSSNYMSWVRQAPGKGLEWVAVIYSGGSTYYADSVKGRFTISRDNSKNTLYLQMNSLRAEDTAVYYCARDYGDFYFDYWGQGTLVTVSS
VL: not shown
B3: P186-2A8 (antibody, V domains shown)
VH: EVQLVESGGGLVQPGRSLRLSCAASGFTFDDYAMHWVRQAPGKGLEWVSGISWNSGSISYADSVKGRFTISRDNAKNSLYLQMNSLRAEDTALYYCAKALVGGHKYYYGMDVWGQGTTVTVSS
VL: not shown
B4: P2S-1H6 (antibody, V domains shown)
VH: EVQLVESGGGLVQPGRSLRLSCAASGFTFDDYDMHWVRQAPGKGLEWVSGISWNGGIIGYADSVKGRFTISRDNAKTSLYLQMNSLKPEDTALYYCAKVAGRGDYDYYYGMDVWGQGTTVTVSS
VL: QSVLTQPPSVSGAPGQRVTISCTGSSSNIGAGYDVHWYQQLPGTAPKLLIYGNNNRPSGVPDRFSGSKSGTSASLAITGLQAEDEADYYCQSYDSSLSGSVFGGGTKLTVL
B5: P195-2B9 (antibody, V domains shown)
VH: QVQLQESGPGLVKPSETLSLTCTVSGGSSSSHFWSWIRQPPGKGLEWIGYIYYGGNTNYNPSLKSRVTISVDTSKSQFSLKLSSVTAADTAVYYCARHHYYYDSSDFRLKAGYYFDYWGQGTLVAVSS
VL: B4 VL with Y51F, G52D, N55D, G70D, S98I, G99S, S100W, V110L
B6: P10S-1G4 (antibody, V domains shown)
VH: QVQLQESGPGLVKPSQTLSLTCTVSGDSISSGDYYWIWIRQHPGKGLEWIGYIYYSGSTYYNPSLKSRVTISVDTSKNQFSLKLSSVTAADTAVYYCARVEYCSGGSCRRHNWFDPWGQGTLVTVSS
VL: B4 VL with N54S, S100V
B7: P195-1B8 (antibody, V domains shown)
VH: QVTLRESGPALVKPTQTLTLTCTFSGFSLSTSGMCVSWIRQPPGKALEWLALIDWDDDKYYSTSLKTRLTISKDTSKNQVVLTMTNMDPVDTATYYCARSWVGGGVDVWGQGTTVTVSS
VL: not shown
B8: P5S-1B11 (antibody, V domains shown)
VH: QVQLVQSGAEVKKPGASVKLSCRASGYTFTSYFMHWVRQAPGQGLEWMGVINPGGGGTSYAQKFQGRVTMTRDTSTSTVYMELSSLRSEDTAVYYCARYYDSIDNFDYWGQGTLVTVSS
VL: DIQMTQSPSSLSASVGDRVTITCRASQGIRNDLGWYQQKPGKAPKCLIYAASSLQSGVPSRFSGSRSGTEFTLTISSLQPEDFATYYCLQHNTYPQLTFGGGTKVEIK
B9: P5-2B9 (antibody, V domains shown)
VH: EVQLVQSGAEVKKPGESLKISCKGSGHSFTSFWIGWVRQMPGKGLEWMGIIYPGDSETRYSPSFQGQVTISVDKSIFTAYLQWSSLKASDSAMYYCARISGKGVGWFDPWGQGTLVTVSS
VL: SYVLTQPPSVSVAPGQTARITCGGNNIGSKSVHWYQQKPGQAPVLVIYYDSDRPSGIPERFSGSNSGNTATLTISRVEAGDEADYYCQVWHSSSDHVVFGGGTKLTVL
B10: P195-2A1 (antibody, V domains shown)
VH: EVQLVESGGGLVQPGGSLRLSCAASGFTVSSNYMSWVRQAPGKGLEWVSVIYSGGSTYYADSVKGRFTISRDNSKNTLYLQMNSLRAEDTAVYYCARGEGGDLPFDYWGQGTLVTVSS
VL: QSALTQPASVSGSPGQSITISCTGTSSDVGGYYYVSWFQQHPGEAPKLMIFDVSKRPSGVSNRFSGSKSGNTASLTISGLQAEDEADYYCSSYTSSSTSHVLFGGGTKLTVL
B11: P5S-2G9 (antibody, V domains shown)
VH: QVTLRESGPALVKPTQTLTLTCTFSGFSLRTTGMCVSWIRQPPGKALEWLALIDWDGDKYYATSLETRLTISKDTSENQVVLTMTNMDPVDTATYYCVRTLRLRWLDFWGQGTLVTVSS
VL: DIQMTQSPSSLSASVGDRVTITCRASQSIGTSLNWYQQKPVKAPNLLIYGASSLQSGVPSRFSGSGSGTDFTLTISSLQPEDFATYYCQQGYTTPLTFGGGTKVEIK
B12: P195-2B8 (antibody, V domains shown)
VH: EVQLVESGGGLIHPGGSLRLSCAASGFTVSSNYMTWVRQAPGKGLEWVSVIYSGGSTFYADSVKGRFTISRDNSKNTLYLQMNSLRAQDTAVYYCARDLSVYGMDVWGQGTTVTVSS
VL: DIQLTQSPSFLSASVGDRVTITCRASQGISSYLAWYQQKPGKAPKLLIYAASTLQSGVPSRFSGSGSGTEFTLTISSLQPEDFATYYCQQLNSDSFTFGPGTKVDIK
B13: P2-1G7 (antibody, V domains shown)
VH: EVQLVESGGGLIQPGGSLRLSCAASGFIVSSNYMTWVRQAPGKGLEWVSVLFSGGSTFYADSVKGRFTISRDNSKNTLYLQMNSLRAEDTAVYYCARENGGYYFDYWGQGTLVTVSS
VL: B12 VL with S31T, S93N, D94Y, S95P, F96P, T97D, P100G, D105E
B14: P5S-2G8 (antibody, V domains shown)
VH: QMQLVQSGAEVKKTGSSVKVSCKASGSTFTHRYLHWVRQAPGQALEWMGWITPFNGDTNYAQKFQDRVTITRDGSMSTVYMDLSSLRSEDTAMYYCAAGARWGDSYYYYGMDVWGQGTAVTVSS
VL: QSALTQPPSASGSPGQSVTISCTGTSSDVGGYNYVSWYQQHPDKAPKLMIYEVSKRPSGVPDRFSGSKSGNTASLTVSGLQAEDEADYYCSSYAGNNNLVFGTGTKVTVL
B15: P186-2C12 (antibody, V domains shown)
VH: EVQLVESGGGVVRPGGSLRLSCAASGFTFDDYGMSWVRQAPGKGLEWVSGIYWNGGITGYADSLKGRFTISRDNAKNSLYLQMNSLRAEDTALYHCARDRGSGYYIFDYWGQGTLVTVSS
VL: not shown
B16: P2-1G9 (antibody, V domains shown)
VH: EVQLVESGGGLVQPGGSLRLSCAASGFTFSTYWMSWVRQAPGKGLEWVANIKQDGSDKYYVDSVKGRFTISRDNAKNSLYLQMNSLRVEDTAVYYCARDLGILWFGELPNFDPWGQGTLVTVSS
VL: DIQMTQSPSSLSASVGDRVTITCRASQGISNSLAWYQQKPGKAPKLLLYAASTLESGVPSRFSGSGSGTDYTLTISSLQPEDFATYYCQQYYSPPPRTFGQGTKVEIK
B17: P2S-2E8 (antibody, V domains shown)
VH: B16 VH with T31S, D57E, V88A
VL: B16 VL with T53R, P94T
B18: P2-1B1 (full IgG1) (antibody, V domains shown)
VH: QVQLVQSGAEVKRPGSSVKVSCKASGGTFSSYAISWVRQAPGQGPEWMGGIIPIFGTPHNAQKFQGRVTITADESTSTAYMELSSLRSEDTAMYYCSRTKGDILTGYTDYYFDSWGQGTLVTVSS
VL: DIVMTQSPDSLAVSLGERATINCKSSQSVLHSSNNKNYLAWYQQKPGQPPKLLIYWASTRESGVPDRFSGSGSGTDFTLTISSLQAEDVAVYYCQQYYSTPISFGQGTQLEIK
B19: P5-1H1 (full IgG1) (antibody, V domains shown)
VH: B12 VH with H13Q, F27I, A40P, S62P, K75R, Q88E, S100Q
VL: DIQLTQSPSFLSASVGDRVTITCRASQGISNFLAWYQQKPGKAPKLLIYAASTLQGGVPSTFSGSGSGTEFTLTISSLQPEDFATYYCQHLNDYPLFGGGTRVEIK
B20: P5-1C8 (full IgG1) (antibody, V domains shown)
VH: EVQLVESGGGLIQPGGSLRLSCAASEIIVSRNYMNWVRQAPGKGLEWVSVIYSGGSTFYADSVKGRFTISRDNSENTLYLQMNSLRAEDTAVYYCARGYGDYYFDYWGRGTLVTVSS
VL: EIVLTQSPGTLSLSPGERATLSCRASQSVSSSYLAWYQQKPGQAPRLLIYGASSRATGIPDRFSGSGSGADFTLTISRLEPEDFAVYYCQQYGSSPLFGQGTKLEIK

Where a chain is given by its changes, count along the chain named. Names and notes keep the numbering of the source.

One assay has as its target recombinant wild-type SARS-CoV-2 S trimer (ELISA antigen) (SARS-CoV-2 wild-type, UniProt P0DTC2).
Experiment: not given
Conditions: not given
Take B1: the binding result is “binds”.
Regarding B2, the binding result is “binds”.
Take B3: the binding result is recorded as “binds”.
Same read-out and setting: as for B4, the entry is “binds”; as for B5, “binds”; as for B6, “binds”.
B7: the binding result is given as “binds”.
On the same count and under the same terms, as for B8, the entry is “binds”; as for B9, “binds”.
As for B10, the binding result is reported as “binds”.
With B11, the binding result is listed as “binds”.
With B12, the binding result is on record as “binds”.
Turning to B13, the binding result was “binds”.
As to B14, the binding result is listed as “binds”.
In the case of B15, the binding result is listed as “binds”.
For the molecule B16, the binding result was “binds”.
The same measure, in the same setting: for B17 the value was “binds”.

Another assay concerns the target T1, recombinant RBD protein of wild-type SARS-CoV-2 (ELISA antigen) (SARS-CoV-2 wild-type, UniProt P0DTC2).
Experiment: not given
Conditions: not given
On to B1, for which the binding result was “binds”.
Turning to B2, the binding result was “binds”.
Take B3: the binding result is listed as “binds”.
On the same count and under the same terms, as for B4, the entry is “binds”.
On the same count and under the same terms, for B5 the value was “binds”; for B6, “binds”.
With B7, the binding result is reported as “binds”.
In the case of B8, the binding result is on record as “binds”.
Turning to B9, the binding result is given as “binds”.
In the case of B10, the binding result is “binds”.
The same measure, in the same setting: as for B11, the entry is “binds”; as for B12, “binds”; as for B13, “binds”.
Turning to B14, the binding result was “binds”.
For B15, the binding result was “binds”.
For B16, the binding result is on record as “binds”.
For B17, the binding result is on record as “binds”.

A further assay addresses T1, recombinant RBD protein of wild-type …. Description: ELISA. The settings on record: one partner purified. (In general: ELISA stands for enzyme-linked immunosorbent assay.)
For B18, the binding result is given as “binds”.
With B19, the binding result is “binds”.
Take B20: the binding result was “binds”.

The next assay has as its target SARS-CoV-2 RBD immobilised on the CM5 chip (SARS-CoV-2 wild-type (assumed)). Description: SPR. The settings on record: both partners purified.
For the molecule B18, the binding result is listed as “binds”.
Take B19: the binding result is “binds”.
Consider B20, for which the binding result is recorded as “binds”.
